Measurements published in paper PMC9044925.

What was measured:
[1] = molecular target: PTP-CIF3 (Trypanosoma brucei); experiment: co-IP; PTP-tagged protein precipitated from T. brucei lysate with IgG-Sepharose beads, 30 min at 4°C, IP buffer, five washes; 3HA-tagged partner detected by anti-HA immunoblot; complementation lines induced with tetracycline
[2] = molecular target: CIF1 (endogenous) (Trypanosoma brucei (endogenous in T. brucei cells)); experiment: co-IP; endogenous CIF1 or TbPLK precipitated from T. brucei lysate with anti-CIF1 or anti-TbPLK antibody and protein A-Sepharose beads, 30 min at 4°C, IP buffer; 3HA-tagged CIF3* and mutants detected by anti-HA immunoblot; band intensity by ImageJ, normalised to CIF1 and compared with the input

| percent of the input protein immunoprecipitated [1] [%] | Substance | percent of the input protein immunoprecipitated [2] [%] |
| --- | --- | --- |
| 50 | CIF1-3HA (ectopic, full-length CIF1) (natural protein) | – |
| 24 | CIF1-ΔIDR1-3HA (domain or fragment) | – |
| – | CIF3*-3HA (full-length recoded, RNAi-resistant CIF3) (natural protein) | 21 |
| – | CIF3*-ΔCC1-3HA (domain or fragment) | 16 |
| – | CIF3*-ΔCC2-3HA (natural protein) | 31 |
| – | CIF3*-ΔCC3-3HA (natural protein) | 3 |

| Substance | percent of the input protein immunoprecipitated [1] [%] | percent of the input protein immunoprecipitated [2] [%] |
| --- | --- | --- |
| CIF1-ΔIDR2-3HA (natural protein) | 72 | – |
